B1: HDV Ribozyme (parent)
chain: GGCCGGCAUGGUCCCAGCCUCCUCGCUGGCGCCGGCUGGGCAACAUUCCGAGGGGACCGUCCCCUCGGUAAUGGCGAAUGGGACCCA

Variants of: B1
Experiment: self-cleavage, relative activity (ratio to wild type); higher = more cleavage; co-transcriptional

Compared with GGCCGGCAUGGUCCCAGCCUCCUCGCUGGCGCCGGCUGGGCAACAUCCCGAGGGGACCGUCCCCUCGCUAAUGGCGAAUGGGACCCA, GGCCGGCAUGGUCCCAGCCUCCUCGCUGGCGCCGGCUGGGCAACAUCCCGAGGGGACCGUCCCCUCGGUAAUGCCGAAUGGGACCCA is lower in self-cleavage: 0.44 for the first, 0.256 for the second.

First: GGCCGGCAUGGUCCCAGCCUCCUCGCUGGCGCCGGCUGGGCAACAUCCCGAGGGGACCGUCCCCUCGGUAAUGUCGAAUGGGACCCA
Second: GGCCGGCAUGGUCCCAGCCUCCUCGCUGGCGCCGGCUGGGCAACAUCCCGAGGGGACCGUCCCCUCGGUAAUGGCCAAUGGGACCCA
The self-cleavage of the first is lower: 0.633 for the first, 0.931 for the second.

Compared with GGCCGGCAUGGUCCCAGCCUCCUCGCUGGCGCCGGCUGGGCAACAUCCCGAGGGGACCGUCCCCUCGGUAAUGGCUAAUGGGACCCA, GGCCGGCAUGGUCCCAGCCUCCUCGCUGGCGCCGGCUGGGCAACAUCCCGAGGGGACCGACCCCUCGGUAAUGGCGAAUGGGACCCA is higher in self-cleavage: 0.895 for the first, 0.987 for the second.

First: GGCCGGCAUGGUCCCAGCCUCCUCGCUGGCGCCGGCUGGGCAACAUCCCGAGGGGACCGUCCCCUCGGCAAUGGCGAAUGGGACCCA
Second: GGCCGGCAUGGUCCCAGCCUCCUCGCUGGCGCCGGCUGGGCAACAUCCCGAGGGGACCGUCCCCUCGGUAAAGGCGAAUGGGACCCA
The self-cleavage of the first is higher: 1.08 for the first, 0.65 for the second.

Compared with GGCCGGCAUGGUCCCAGCCUCCUCGCUGGCGCCGGCUGGGCAACAUGCCGCGGGGACCGUCCCCUCGGUAAUGGCGAAUGGGACCCA, GGCCGGCAUGGUCCCAGCCUCCUCGCUGGCGCCGGCUGGGCAACAUGCCGGGGGGACCGUCCCCUCGGUAAUGGCGAAUGGGACCCA is lower in self-cleavage: 1.13 for the first, 0.906 for the second.

Compared with GGCCGGCAUGGUCCCAGCCUCCUCGCUGGCGCCGGCUGGGCAACAUGCCGUGGGGACCGUCCCCUCGGUAAUGGCGAAUGGGACCCA, GGCCGGCAUGGUCCCAGCCUCCUCGCUGGCGCCGGCUGGGCAACAUGCCGAGGGGACCGUCCCCUCGGUCAUGGCGAAUGGGACCCA is higher in self-cleavage: 1.2 for the first, 1.22 for the second.

Compared with GGCCGGCAUGGUCCCAGCCUCCUCGCUGGCGCCGGCUGGGCAACAUGCCGAGGGGACCGUCCCCUCGGUUAUGGCGAAUGGGACCCA, GGCCGGCAUGGUCCCAGCCUCCUCGCUGGCGCCGGCUGGGCAACAUGCCGAGGGGACCGUCCCCUCGGUAGUGGCGAAUGGGACCCA is lower in self-cleavage: 1.4 for the first, 1.11 for the second.

First: GGCCGGCAUGGUCCCAGCCUCCUCGCUGGCGCCGGCUGGGCAACAUGCCGAGGGGACCGUCCCCUCGGUAAUGGCGCAUGGGACCCA
Second: GGCCGGCAUGGUCCCAGCCUCCUCGCUGGCGCCGGCUGGGCAACAUGGCGAGGGGACCGUCCCCUCGGUAAUGGCGAAUGGGACCCA
The self-cleavage of the first is lower: 0.35 for the first, 0.635 for the second.

GGCCGGCAUGGUCCCAGCCUCCUCGCUGGCGCCGGCUGGGCAACAUGCCGAGGGGAACGUCCCCUCGGUAAUGGCGAAUGGGACCCA and GGCCGGCAUGGUCCCAGCCUCCUCGCUGGCGCCGGCUGGGCAACAUGCCGAGGGGAGCGUCCCCUCGGUAAUGGCGAAUGGGACCCA are the same in self-cleavage: 1.22 for the first, 1.22 for the second.

Compared with GGCCGGCAUGGUCCCAGCCUCCUCGCUGGCGCCGGCUGGGCAACAUGCCGAGGGGACGGUCCCCUCGGUAAUGGCGAAUGGGACCCA, GGCCGGCAUGGUCCCAGCCUCCUCGCUGGCGCCGGCUGGGCAACAUGCCGAGGGGACCGUCUCCUCGGUAAUGGCGAAUGGGACCCA is higher in self-cleavage: 0.831 for the first, 0.923 for the second.

First: GGCCGGCAUGGUCCCAGCCUCCUCGCUGGCGCCGGCUGGGCAACAUGCCGAGGGGACCGUCCGCUCGGUAAUGGCGAAUGGGACCCA
Second: GGCCGGCAUGGUCCCAGCCUCCUCGCUGGCGCCGGCUGGGCAACAUGCCGAGGGGACCGUCCCGUCGGUAAUGGCGAAUGGGACCCA
The self-cleavage of the first is lower: 0.415 for the first, 0.485 for the second.

First: GGCCGGCAUGGUCCCAGCCUCCUCGCUGGCGCCGGCUGGGCAACAUGCCGAGGGGACCGUCCCCUAGGUAAUGGCGAAUGGGACCCA
Second: GGCCGGCAUGGUCCCAGCCUCCUCGCUGGCGCCGGCUGGGCAACAUGCCGAGGGGACCGUCCCCUCGGUAAUGGAGAAUGGGACCCA
The self-cleavage of the first is higher: 0.969 for the first, 0.107 for the second.

First: GGCCGGCAUGGUCCCAGCCUCCUCGCUGGCGCCGGCUGGGCAACAUGCCGAGGGGACCGUCCCCUCGGUAAUGGUGAAUGGGACCCA
Second: GGCCGGCAUGGUCCCAGCCUCCUCGCUGGCGCCGGCUGGGCAACAUGCCGAGGGGACCGUCCCCUCGGUAAUGGCGAAUGGGAACCA
The self-cleavage of the first is lower: 0.305 for the first, 0.965 for the second.

Compared with GGCCGGCAUGGUCCCAGCCUCCUCGCUGGCGCCGGCUGGGCAACAUGCCGAGGGGACCGUCCCCUCGGUAAUGGCGAAUGGGAGCCA, GGCCGGCAUGGUCCCAGCCUCCUCGCUGGCGCCGGCUGGGCAACAUGCCGAGGGGACCGUCCCCUCGGUAAUGGCGAAUGGGACUCA is higher in self-cleavage: 0.475 for the first, 1.21 for the second.

Going from GGCCGGCAUGGUCCCAGCCUCCUCGCUGGCGCCGGCUGGGCAACAUGCCGAGGGGACCGUCCCCUCGGUAAUGGCGAAUGGGACCGA to GGCCGGCAUGGUCCCAGCCUCCUCGCUGGCGCCGGCUGGGCAACAUGCCGAAGGGACCGUCCCCUCGGUAAUGGCGAAUGGGACCCA, the self-cleavage rises from 0.95 to 0.978.

Going from GGCCGGCAUGGUCCCAGCCUCCUCGCUGGCGCCGGCUGGGCAACAUGCCGACGGGACCGUCCCCUCGGUAAUGGCGAAUGGGACCCA to GGCCGGCAUGGUCCCAGCCUCCUCGCUGGCGCCGGCUGGGCAACAUGCCGAGGCGACCGUCCCCUCGGUAAUGGCGAAUGGGACCCA, the self-cleavage rises from 0.895 to 0.928.
